Reference: patent US20230050440A1 (Seagen, published 2023)

T1: monomeric human TIGIT (Sino Biological 10917-H08H) (human, UniProt Q495A1 22-138, biotinylated in the MSD-SET assay)
T1 construct: Bought protein; also called Human TIGIT monomer; Human TIGIT-His; not shown: His tag
T1 sequence: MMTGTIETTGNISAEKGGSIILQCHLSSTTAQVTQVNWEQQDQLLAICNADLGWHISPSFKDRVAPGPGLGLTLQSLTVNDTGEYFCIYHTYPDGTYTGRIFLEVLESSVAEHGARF

T2: human TIGIT expressed on cells (human, UniProt Q495A1 22-244)
T2 construct: HEK 293 cells stably expressing human TIGIT, primary human T cells or Jurkat effector cells; the cell is named under assay; also called Human TIGIT HEK
T2 sequence: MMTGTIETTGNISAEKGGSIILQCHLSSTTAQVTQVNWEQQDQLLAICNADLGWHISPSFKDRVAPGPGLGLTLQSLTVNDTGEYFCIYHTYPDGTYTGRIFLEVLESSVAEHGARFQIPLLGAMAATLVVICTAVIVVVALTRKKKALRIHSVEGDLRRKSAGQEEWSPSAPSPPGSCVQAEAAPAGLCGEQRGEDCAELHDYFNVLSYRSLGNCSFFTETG

T3: recombinant dimeric human TIGIT-Fc (Acro Biosystems TIT-H5254) (human, UniProt Q495A1 22-141)
T3 construct: Bought protein; also called hTIGIT-Fc; not shown: Fc part of the bought fusion protein
T3 sequence: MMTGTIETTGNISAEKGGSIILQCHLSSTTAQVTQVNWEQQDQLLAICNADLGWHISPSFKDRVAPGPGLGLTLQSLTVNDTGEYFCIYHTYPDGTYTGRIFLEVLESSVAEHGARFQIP


Key:
[1] = target: T1, monomeric human TIGIT (Sino Biological …); experiment: BLI (ForteBio), IgG on sensor, monovalent
Protocol: (§1) Briefly, ForteBio affinity measurements were performed by loading IgGs on-line onto AHQ sensors. Sensors were equilibrated off-line in assay buffer for 30 minutes and then monitored on-line for 60 seconds for baseline establishment. Sensors with loaded IgGs were exposed to 100 nM antigen (dimeric Fc-fusion antigen or monomeric antigen) for 3 minutes, and afterwards were transferred to assay buffer for 3 minutes for off-rate measurement. All binding and dissociation kinetics were analyzed using the 1:1 binding model.
The optimized antibodies were also tested for ligand blocking in a CD155 ligand competition assay, and for binding to human TIGIT HEK, cyno TIGIT HEK, mouse TIGIT HEK, and parental HEK cell lines, as described above.

[2] = target: T4, cyno TIGIT-Fc (cynomolgus monkey); experiment: BLI (ForteBio), IgG on sensor, avid
T4 construct: not shown: Fc part

[3] = target: T2, human TIGIT expressed on cells; experiment: flow cytometry on HEK 293 cells expressing the target, MFI over parental HEK 293;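 further: bound antibody detected with PE-labelled anti-human IgG, 15 min on ice. FOB equals median fluorescence on TIGIT-positive cells divided by that on target-negative cells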
Protocol: (§2) HEK 293 cells were engineered to stably express high levels of human, mouse or cynomolgus monkey TIGIT by lentiviral transduction. […] Cells were then washed twice with wash buffer and incubated with anti-human IgG conjugated to PE for 15 minutes on ice. Cells were then washed twice with wash buffer and analyzed by flow cytometry on a FACS Canto II instrument (BD Biosciences). Fold over background (FOB) was calculated as the median fluorescence intensity (MFI) of the anti-TIGIT clone bound to target-positive cells divided by the MFI of the anti-TIGIT clone bound to target-negative cells.

[4] = target: T5, cynomolgus monkey TIGIT expressed on cells (cynomolgus monkey); experiment: as above
T5 construct: HEK 293 cells stably expressing cynomolgus monkey TIGIT or cynomolgus T cells; also called Cyno TIGIT HEK
Protocol: as §2

[5] = target: T1, monomeric human TIGIT (Sino Biological …); experiment: MSD-SET solution equilibrium titration, biotinylated antigen at 50 pM
Protocol: Antibodies (20 nM in PBS) were coated onto standard bind MSD-ECL plates overnight at 4° C. or at room temperature for 30 min. Plates were then blocked with 1% BSA for 30 min with shaking at 700 rpm, followed by three washes with wash buffer (PBSF+0.05% Tween 20). SET samples were applied and incubated on the plates for 150s with shaking at 700 rpm followed by one wash. Antigen captured on a plate was detected with 250 ng/ml sulfotag-labeled streptavidin in PBSF by incubation on the plate for 3 min. The plates were washed three times with wash buffer and then read on the MSD Sector Imager 2400 instrument using 1× Read Buffer T with surfactant. The percent free antigen was plotted as a function of titrated antibody in Prism and fit to a quadratic equation to extract the KD. To improve throughput, liquid handling robots were used throughout MSD-SET experiments, including SET sample preparation.

[6] = target: T3, recombinant dimeric human TIGIT-Fc …; experiment: BLI (ForteBio Octet RED384), IgG on AHQ sensor, 100 nM antigen, 1:1 model
Protocol: as §1

[7] = target: T1, monomeric human TIGIT (Sino Biological …); experiment: as above
Protocol: as §1

T5 sequence (chain, as listed by the source limits assumed): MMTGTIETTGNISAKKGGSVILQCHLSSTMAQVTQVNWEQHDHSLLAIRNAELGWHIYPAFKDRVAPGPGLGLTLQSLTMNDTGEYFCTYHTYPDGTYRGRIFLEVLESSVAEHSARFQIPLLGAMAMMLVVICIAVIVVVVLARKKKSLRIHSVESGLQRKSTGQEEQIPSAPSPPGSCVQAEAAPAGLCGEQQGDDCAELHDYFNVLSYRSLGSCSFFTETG
T4 sequence (chain, as listed by the source limits assumed): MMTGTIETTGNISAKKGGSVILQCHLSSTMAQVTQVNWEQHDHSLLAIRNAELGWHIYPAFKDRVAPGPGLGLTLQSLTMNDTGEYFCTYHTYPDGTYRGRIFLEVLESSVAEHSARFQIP

Row | Kd [1] [nM] | Kd [2] [nM] | FOB (Fold Over Background) [3] [fold] | FOB (Fold Over Background) [4] [fold] | Kd [5] [nM] | Kd [6] [nM] | Kd [7] [nM] | Binder
1 | 0.518 | 0.984 | 193 | 224 | 0.016 | – | – | Clone 2C (antibody, V domains shown) VH: EVQLVESGGGLVQPGGSLRLSCAASGFTFTDYYMDWVRQAPGKGLEWVGRTRNKVNSYYTEYAASVKGRFTISRDDSKNSLYLQMNSLKTEDTAVYYCARGQYYYGSDRRGYYYMDVWGQGTTVTVSS VL: EIVLTQSPGTLSLSPGERATLSCRASQSVSSSYLAWYQQKPGQAPRLLIYGASSRATGIPDRFSGSGSGTDFTLTISRLEPEDFAVYYCQQAVPSPLTFGGGTKVEIK
2 | 0.571 | – | – | – | 0.005 | – | – | Clone 13D (antibody, V domains shown) VH: QVQLVQSGAEVKKPGSSVKVSCKASGGTFLSSAISWVRQAPGQGLEWMGSIIPYFGKANYAQKFQGRVTITADESTSTAYMELSSLRSEDTAVYYCARGPSEVKGILGYVWFDPWGQGTLVTVSS VL: not shown
3 | 0.627 | – | – | – | 0.025 | – | – | Clone 13A (antibody, V domains shown) VH: QVQLVQSGAEVKKPGSSVKVSCKASGGTFLSSAISWVRQAPGQGLEWMGSLIPYFGTANYAQKFQGRVTITADESTSTAYMELSSLRSEDTAVYYCARGPSEVGAILGYVWFDPWGQGTLVTVSS VL: not shown
4 | 0.61 | – | – | – | 0.0053 | – | – | Clone 13B (antibody, V domains shown) VH: QVQLVQSGAEVKKPGSSVKVSCKASGGTFSAWAISWVRQAPGQGLEWMGSIIPYFGKANYAQKFQGRVTITADESTSTAYMELSSLRSEDTAVYYCARGPSEVSGILGYVWFDPWGQGTLVTVSS VL: not shown
5 | 0.563 | – | – | – | 0.0086 | – | – | Clone 13C (antibody, IgG1, V domains shown) VH: QVQLVQSGAEVKKPGSSVKVSCKASGGTFLSSAISWVRQAPGQGLEWMGSIIPLFGKANYAQKFQGRVTITADESTSTAYMELSSLRSEDTAVYYCARGPSEVKGILGYVWFDPWGQGTLVTVSS VL: not shown
6 | – | – | – | – | – | 2.01 | 58.7 | Clone 14 (antibody, V domains shown, Fully human IgG produced in yeast) VH: QVQLVQSGAEVKKPGSSVKVSCKASGGTFSSYAISWVRQAPGQGLEWMGSIIPIFGTANYAQKFQGRVTITADESTSTAYMELSSLRSEDTAVYYCARGPSEVGAILGYVWFDPWGQGTLVTVSS VL: not shown
7 | 0.911 | 4.25 | 208 | 157 | 0.0063 | – | – | Clone 16C (antibody, V domains shown) VH: QVQLVQSGAEVKKPGSSVKVSCKASGGTFREYAISWVRQAPGQGLEWMGGIHPIFGTARYAQKFQGRVTITADESTSTAYMELSSLRSEDTAVYYCTRQSTWHKLYGTDVWGQGTTVTVSS VL: DIQMTQSPSSVSASVGDRVTITCRASQGISSWLAWYQQKPGKAPKLLIYAASSLQSGVPSRFSGSGSGTDFTLTISSLQPEDFATYYCQQGDSLPPTFGGGTKVEIK
8 | 0.596 | 1.15 | 199 | 241 | 0.013 | – | – | Clone 16D (antibody, V domains shown) VH: QVQLVQSGAEVKKPGSSVKVSCKASGGTFSDYPISWVRQAPGQGLEWMGGIIPIVGGANYAQKFQGRVTITADESTSTAYMELSSLRSEDTAVYYCTRQSTWHKLFGTDVWGQGTTVTVSS VL: DIQMTQSPSSVSASVGDRVTITCRASQGISSWLAWYQQKPGKAPKLLIYAASSLQSGVPSRFSGSGSGTDFTLTISSLQPEDFATYYCQQGDSLPPTFGGGTKVEIK
9 | 0.778 | 1.36 | 195 | 186 | 0.011 | – | – | Clone 16E (antibody, V domains shown) VH: QVQLVQSGAEVKKPGSSVKVSCKASGGTFSDYPISWVRQAPGQGLEWMGGIIPIVGGANYAQKFQGRVTITADESTSTAYMELSSLRSEDTAVYYCARQSTWHKVYGTDVWGQGTTVTVSS VL: DIQMTQSPSSVSASVGDRVTITCRASQGISSWLAWYQQKPGKAPKLLIYAASSLQSGVPSRFSGSGSGTDFTLTISSLQPEDFATYYCQQGDSLPPTFGGGTKVEIK
10 | 1.1 | 1.64 | 207 | 238 | 0.018 | – | – | Clone 25A (antibody, V domains shown) VH: QVQLVQSGAEVKKPGASVKVSCKASGYTFTSYAISWVRQAPGQGLEWMGWISAYNGNTKYAQKLQGRVTMTTDTSTSTAYMELRSLRSDDTAVYYCARDLSSFWSGDVLGAFDIWGQGTMVTVSS VL: DIQMTQSPSSLSASVGDRVTITCRASQSISSYLNWYQQKPGKAPKLLIYAASSLQSGVPSRFSGSGSGTDFTLTISSLQPEDFATYYCQQSVPPRTFGGGTKVEIK
11 | 1.16 | 1.4 | 222 | 291 | 0.022 | – | – | Clone 25B (antibody, V domains shown) VH: QVQLVQSGAEVKKPGASVKVSCKASGYTFTSYPIGWVRQAPGQGLEWMGWISSYNGNTNYAQKLQGRVTMTTDTSTSTAYMELRSLRSDDTAVYYCARDLSSFWSGDVLGAFDIWGQGTMVTVSS VL: DIQMTQSPSSLSASVGDRVTITCRASQSISSYLNWYQQKPGKAPKLLIYAASSLQSGVPSRFSGSGSGTDFTLTISSLQPEDFATYYCQQSVPPRTFGGGTKVEIK
12 | 0.697 | 1.24 | 216 | 286 | 0.0056 | – | – | Clone 25C (antibody, V domains shown) VH: QVQLVQSGAEVKKPGASVKVSCKASGYTFTSYPIGWVRQAPGQGLEWMGWISSYNGNTNYAQKLQGRVTMTTDTSTSTAYMELRSLRSDDTAVYYCARGASSFWSGDVLGAFDIWGQGTMVTVSS VL: DIQMTQSPSSLSASVGDRVTITCRASQSISSYLNWYQQKPGKAPKLLIYAASSLQSGVPSRFSGSGSGTDFTLTISSLQPEDFATYYCQQSVPPRTFGGGTKVEIK
13 | 0.846 | 1.18 | 225 | 272 | 0.027 | – | – | Clone 25D (antibody, V domains shown) VH: QVQLVQSGAEVKKPGASVKVSCKASGYTFTSYPIGWVRQAPGQGLEWMGWISSYNGNTNYAQKLQGRVTMTTDTSTSTAYMELRSLRSDDTAVYYCARDLKSFWSGDVLGAFDIWGQGTMVTVSS VL: DIQMTQSPSSLSASVGDRVTITCRASQSISSYLNWYQQKPGKAPKLLIYAASSLQSGVPSRFSGSGSGTDFTLTISSLQPEDFATYYCQQSVPPRTFGGGTKVEIK
14 | 0.851 | 1.18 | 204 | 252 | 0.013 | – | – | Clone 25E (antibody, V domains shown) VH: QVQLVQSGAEVKKPGASVKVSCKASGYTFTSYAIAWVRQAPGQGLEWMGWISAYNGNTNYAQKLQGRVTMTTDTSTSTAYMELRSLRSDDTAVYYCARSGSSFWSGDVLGAFDIWGQGTMVTVSS VL: DIQMTQSPSSLSASVGDRVTITCRASQSISSYLNWYQQKPGKAPKLLIYAASSLQSGVPSRFSGSGSGTDFTLTISSLQPEDFATYYCQQSVPPRTFGGGTKVEIK
15 | – | – | – | – | – | 2.39 | 50.8 | Clone 18 (antibody, V domains shown, Fully human IgG produced in yeast) VH: QVQLVQSGAEVKKPGASVKVSCKASGYTFTSYYMSWVRQAPGQGLEWMGIINPSGGSTSYAQKFQGRVTMTRDTSTSTVYMELSSLRSEDTAVYYCARVRYGYADGMDVWGQGTTVTVSS VL: DIQMTQSPSSLSASVGDRVTITCRASQSISSYLNWYQQKPGKAPKLLIYGASSLQSGVPSRFSGSGSGTDFTLTISSLQPEDFATYYCQQVYHLPFTFGGGTKVEIK
16 | – | – | – | – | – | 0.585 | 2.18 | Clone 21 (antibody, V domains shown, Fully human IgG produced in yeast) VH: QLQLQESGPGLVKPSETLSLTCTVSGGSISSSSYYWGWIRQPPGKGLEWIGSIYYSGSTYYNPSLKSRVTISVDTSKNQFSLKLSSVTAADTAVYYCARDPLYQDAPFDYWGQGTLVTVSS VL: EIVLTQSPATLSLSPGERATLSCRASQSVSSYLAWYQQKPGQAPRLLIYDASNRATGIPARFSGSGSGTDFTLTISSLEPEDFAVYYCQQRANFPTFGGGTKVEIK
17 | – | – | – | – | – | 0.79 | 13.8 | Clone 22 (antibody, V domains shown, Fully human IgG produced in yeast) VH: QVQLQESGPGLVKPSETLSLTCAVSGYSISSGYYWAWIRQPPGKGLEWIGSIYHSGSTYYNPSLKSRVTISVDTSKNQFSLKLSSVTAADTAVYYCARQGYYYGSSGSVDFDLWGRGTLVTVSS VL: DIQMTQSPSSVSASVGDRVTITCRASQGISSWLAWYQQKPGKAPKLLIYAASNLQSGVPSRFSGSGSGTDFTLTISSLQPEDFATYYCQQANSLPPWTFGGGTKVEIK
